Consider 3 substances from paper PMC10808355.

The target of experiment [1] is Chaetomium thermophilum 80S ribosome (Ct80S) (C. thermophilum (endogenous in C. thermophilum)). In words: cryo-EM structure; 400 nM C. thermophilum 80S ribosomes (with random nascent chains) mixed with full-length CtMAP2 (66 µM final), 30 min at RT, then vitrified.
Experiment [2] concerns the target Human 80S ribosome, non-translating (Hs80S) (human (endogenous in HeLa)) (UniProt P62750). Nature of the experiment: cryo-EM structure; 200 nM non-translating H. sapiens 80S ribosomes mixed with HsMAP2 (59 µM final), 30 min at RT, then vitrified.
The target of experiment [3] is Chaetomium thermophilum 80S ribosome (Ct80S) (C. thermophilum (endogenous in C. thermophilum)). In words: cryo-EM structure; 400 nM C. thermophilum 80S ribosomes mixed with CtMAP2∆N (66 µM final), 30 min at RT, then vitrified; particles separated by translocation state (rotated, non-rotated).

In the case of “Chaetomium thermophilum methionine aminopeptidase 2, full length (CtMAP2) (enzyme)”, the percent of purified ribosomes that accommodate MAP2 in experiment [1] turned out to be 100%.
“Human methionine aminopeptidase 2 (HsMAP2) (from UniProt P50579 1-478) (enzyme)” showed a percent of purified ribosomes that accommodate MAP2 in experiment [2] of 100%.
Consider “CtMAP2(∆N1-73), autoproteolysis product of C. thermophilum MAP2 without the N-terminal extension (domain or fragment)”, for which, in experiment [3], the fold of the percentage in the A-site, against the full-length CtMAP2 dataset was 4 fold and the percent of 80S ribosomes with CtMAP2∆N at the PTE was found to be 70%.
